Test results reported in patent US20210292423A1 (published 2021).

Key:
[1] = target: human CD123 (IL3RA) on cells (human, UniProt P26951 19-378); experiment: cell-based or functional assay
[2] = target: T1, human CD3ε/δ-Fc fusion protein (soluble recombinant CD3ε/δ complex) (human, UniProt P04234 22-105); experiment: SPR Biacore, CODV-Fab
T1 construct: also called huCD3ε/δ; huCD3; not shown: hinge, CH2, CH3 of human IgG with tag
Description: (§1) Binding affinities of anti-CD3 binding Fabs or CODV-Fabs were measured by surface plasmon resonance (SPR) using a Biacore3000 instrument (GE Healthcare). Assay buffer was HBS-EP (BR-1001-88, GE Healthcare). Capture of CD3ε/δ-Fc fusion proteins was achieved using the human antibody capture kit (GE Healthcare). […] The CD3εδ-Fc fusions proteins were captured at 10 μl/min to approx. 70 RU to yield Rmax values of 30 RU. Binding kinetics with the anti-CD3 Fabs or CODV-Fabs was measured at 30 μl/min for 240 sec. and 600 sec. for association and dissociation phase, respectively. Twofold dilutions of Fabs from 3 to 400 nM in assay buffer were used. All Fab concentrations were run in duplicate together with duplicate buffer blanks for double referencing. Regeneration of the capture surface was performed with a 1 min injection of 3M MgCl2 solution at 30 μl/min. For data analysis the BIAevaluation software v.4.1 (GE Healthcare) was used. Data were fit globally using a 1:1 Langmuir model with mass transfer.

[3] = target: T1, human CD3ε/δ-Fc fusion protein (soluble …); experiment: SPR Biacore, CD3εδ-Fc captured, Fab analyte
Description: as §1

[4] = target: T1, human CD3ε/δ-Fc fusion protein (soluble …); experiment: SPR Biacore, Fab
Description: as §1

[5] = target: T2, human CD3ε and CD3δ co-expressed on HEK293F cells (human, UniProt P07766 23-207; P04234 22-171); experiment: flow cytometry, transfected HEK293F
T2 construct: also called huCD3ε/δ (transfected cells); huCD3e + huCD3d
Description: (§2) To analyze binding of antibodies to human CD3ε and human CD3δ expressed on the surface of cells, HEK293F cells were transfected with both constructs either alone or in co-transfection and signals were measured by flow cytometry. For transfection procedure FuGENE HD Transfection Reagent (Promega, #E2311) was used according to manufacturer's protocol.
(§3) Antibodies for staining were seeded at 1 μg in 50 μl per well Stain Buffer with FBS (BD Pharmingen) in 96-well U-bottom suspension culture plates (Greiner bio-one). Harvested transfected cells were resuspended in Stain Buffer with FBS and were added at 50 μl per well to the antibodies. Cells were incubated at 4° C. in the dark for 30 min and were washed twice. 0.5 μg secondary antibody Goat F(ab′)2 Anti-Human IgG-FITC (Beckman Coulter, #732598) or Goat F(ab′)2 Anti-Human kappa-PE (Southern Biotech, #206209), respectively, in combination with 0.5 μg 7-AAD per well was added in 100 μl Stain Buffer with FBS. Cells were incubated at 4° C. in the dark for 15 min and were washed twice. For measurement, cells were resuspended in 200 μl Stain Buffer with FBS. Cells were measured using the MACSQuant (Miltenyi Biotec) or LSRII (BD) flow cytometer, respectively. Further data analyses were performed using the FlowJo software (Tree Star, Inc.).

[6] = target: T3, human CD3ε expressed alone on HEK293F cells (human, UniProt P07766 23-207); experiment: flow cytometry, transfected HEK293F
T3 construct: also called huCD3ε
Description: as §2, §3

[7] = target: T1, human CD3ε/δ-Fc fusion protein (soluble …); experiment: SPR, CD3-Fc captured, Fab 100 nM
Description: (§4) Binding was tested by SPR using a BIAcore3000 instrument run with HBS-EP buffer. Recombinant huCD3 proteins (ε/δ (PB01226), ε/γ (PB01225)) were captured at 10 μl/min via Fc-tag by anti-human Fc capture antibody MAB1302 (Millipore) immobilized on a CM5 sensor chip. Anti-CD3 Fabs were used as analytes at 100 nM with association and dissociation times of 240 sec and 300 sec, respectively at 30 μl/min. After each cycle the surfaces were regenerated by a 2 min pulse of 10 mM glycine buffer pH2.5.

[8] = target: recombinant huCD3ε/γ protein with Fc-tag (PB01225) (human, UniProt P07766 23-126; P09693 23-116); experiment: SPR, CD3-Fc captured, Fab 100 nM
Description: as §4

[9] = target: T1, human CD3ε/δ-Fc fusion protein (soluble …); experiment: SPR Biacore, Fab; remark: listed apart in the source
Description: as §1

[10] = target: T4, human CD3δ expressed alone on HEK293F cells (human, UniProt P04234 22-171); experiment: flow cytometry, HEK293F transfected with huCD3δ
T4 construct: entry includes the signal peptide; also called huCD3δ
In short: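 HEK293F cells transfected with huCD3δ alone, harvested 1–3 days post-transfection. Cells stained with 1 μg antibody for 30 min at 4 °C, then anti-human IgG-FITC or anti-human kappa-PE secondary plus 7-AAD for 15 min at 4 °C; binding read by flow cytometry.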

[11] = target: T5, human CD3 (TCR complex) on primary human T cells or Jurkat cells (human, UniProt P07766 23-207); experiment: flow cytometry, primary human T cells
T5 construct: on the cells it stands in the whole TCR/CD3 complex; also called Jurkat E6-1 (expressing human TCR)
Description: The binding capacity of the CD3-Fabs was determined by flow cytometry. Primary human T cells were used as target cells. Therefore, peripheral blood mononuclear cells (PBMCs) were isolated from 200 ml peripheral blood of healthy donors treated with EDTA by Ficoll density centrifugation. 15 ml Histopaque (Sigma-Aldrich) was preloaded on a 50 ml Leucosep-Tube (Greiner bio-one). Blood was diluted with autoMACS Rinsing Buffer+1% BSA (Miltenyi Biotec) and loaded on the membrane of a total of ten prepared tubes. Tubes were centrifuged without brake for 10 min at 1000 xg. PBMCs were collected and washed with autoMACS Rinsing Buffer+1% BSA three times. Finally, PBMCs were resuspended in autoMACS Running Buffer (Miltenyi Biotec) for isolation of T lymphocytes by autoMACSpro technology using the Pan T Cell isolation Kit (Miltenyi Biotec) according to manufacturer's instructions. Purity of separated T cells was analyzed by MACSQuant flow cytometry using the human 7-Color Immunophenotyping Kit (Miltenyi Biotec). Isolated T cells were resuspended in Stain Buffer with FBS (BD Pharmingen) and 1E5 cells in 100 μl per well were seeded in 96-well U-bottom suspension culture plates (Greiner bio-one). Fab antibodies were diluted 1:3 in serial in PBS (Invitrogen) and 5 μl each were added to the cells at a final maximum concentration of 30000 ng/ml. The assay was incubated for 45 min at 4° C. Cells were washed twice with Stain Buffer with FBS and 1 μg secondary antibody Goat F(ab′)2 Anti-Human kappa-FITC (Beckman Coulter, #732621) per well was added in 100 μl Stain Buffer with FBS per well. The assay was incubated for 20 min at 4° C. and washed twice afterwards. Cells were resuspended in 150 μl Stain Buffer with FBS per well and were measured using the MACSQuant (Miltenyi Biotec) or LSRII (BD) flow cytometer. Further data analyses were performed using the FlowJo software (Tree Star, Inc.). Read out was percentage of cells positive for antibody binding. Cells treated only with the secondary but no primary antibody were used to set the gates. EC50 Curves were calculated by XLfit (Algorithm 205), EC50 values were calculated as inflection point of the slope (data are shown in table 6).

T4 sequence (P04234 22-171 limits assumed, stated change not applied): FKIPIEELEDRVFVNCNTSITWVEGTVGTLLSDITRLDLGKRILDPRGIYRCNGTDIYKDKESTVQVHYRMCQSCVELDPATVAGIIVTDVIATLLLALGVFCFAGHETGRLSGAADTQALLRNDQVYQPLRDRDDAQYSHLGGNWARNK
T1 sequence (chain, as listed by the source mutant, chain 1 of 2): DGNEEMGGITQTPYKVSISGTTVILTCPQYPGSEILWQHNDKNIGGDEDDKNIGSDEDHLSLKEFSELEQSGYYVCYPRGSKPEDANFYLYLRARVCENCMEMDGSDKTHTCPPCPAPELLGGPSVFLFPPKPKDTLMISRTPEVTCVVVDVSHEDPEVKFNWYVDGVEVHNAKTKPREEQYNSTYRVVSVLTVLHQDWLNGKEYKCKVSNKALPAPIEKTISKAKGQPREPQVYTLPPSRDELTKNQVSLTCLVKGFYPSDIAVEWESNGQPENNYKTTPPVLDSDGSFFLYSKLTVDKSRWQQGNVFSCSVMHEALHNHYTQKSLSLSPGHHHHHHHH
T1 sequence (P04234 22-105, stated change not applied, chain 2 of 2): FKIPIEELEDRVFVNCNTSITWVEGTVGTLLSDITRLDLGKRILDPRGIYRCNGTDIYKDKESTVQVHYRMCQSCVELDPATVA
Sequence of human CD123 (IL3RA) on cells (P26951 19-378): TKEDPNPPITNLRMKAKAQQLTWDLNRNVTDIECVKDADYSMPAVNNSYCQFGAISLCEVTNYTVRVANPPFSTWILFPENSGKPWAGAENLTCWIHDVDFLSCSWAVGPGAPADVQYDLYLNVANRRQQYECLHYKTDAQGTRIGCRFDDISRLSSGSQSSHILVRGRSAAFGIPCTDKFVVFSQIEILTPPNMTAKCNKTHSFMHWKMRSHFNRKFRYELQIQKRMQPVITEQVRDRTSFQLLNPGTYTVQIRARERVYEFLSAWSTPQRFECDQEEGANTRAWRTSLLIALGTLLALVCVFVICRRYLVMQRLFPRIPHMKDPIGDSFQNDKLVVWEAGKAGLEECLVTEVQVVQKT

Binder | Kd [2] [nM] | koff [2] [s⁻¹] | kon [2] [M⁻¹ s⁻¹] | Kd [3] [nM] | koff [3] [s⁻¹] | kon [3] [M⁻¹ s⁻¹] | Kd [4] [nM] | koff [4] [s⁻¹] | kon [4] [M⁻¹ s⁻¹] | % antibody positive transfected cells [5] [%] | % antibody positive transfected cells [6] [%] | RU of Fab binding at 100 nM [7] [RU] | RU of Fab binding at 100 nM [8] [RU] | Kd [9] [nM] | koff [9] [s⁻¹] | kon [9] [M⁻¹ s⁻¹] | EC50 [11] [nM] | Activity EC50 [ng/ml], cytotoxic assay on THP-1 with human T cells [1] [ng/mL] | binding result [10]
CODV-Fab 7G3x4E7 antibody-like binding protein (bispecific antibody, also called 7G3 × 4E7) light: DVVMTQTPVSLSVSLGGQVSISCRSSQSLEHNNGNTYLSWYLQKPGQSPQPLIYKVSNRFSGISDRFSGSGSGTDFTLKISRVEPDDLGVYYCGQGTQYPFTFGPGTKLELKGQPKAAPDFVMTQSPSSLTVTAGEKVTMSCKSSQSLLNSGNQKNYLTWYLQKPGQPPKLLIYWASTRESGVPDRFTGSGSGTDFTLTISSVQAEDLAVYYCQNDYSYPYTFGGGTKLEIKTKGPSRTVAAPSVFIFPPSDEQLKSGTASVVCLLNNFYPREAKVQWKVDNALQSGNSQESVTEQDSKDSTYSLSSTLTLSKADYEKHKVYACEVTHQGLSSPVTKSFNRGEC heavy: EVQLQQSGPELVKPGASVKMSCKASGYTFTDYYMKWVKQSHGKSLEWIGDIIPSNGATFYNQKFKGKATLTVDRSSSTAYMHLNSLTSEDSAVYYCTRSHLLRASWFAYWGQGTLVTVSASEVQVVETGGSLVQPGKSLKLTCATSGFTFSNAWMHWVRQSPEKQLEWVAQIKDKSNNYATYYAESLKGRFTISRDDPKRSIYLQMNSLREEDTAIYYCRYVHYGIGYAMDAWGQGTSVTVSSRTASTKGPSVFPLAPSSKSTSGGTAALGCLVKDYFPEPVTVSWNSGALTSGVHTFPAVLQSSGLYSLSSVVTVPSSSLGTQTYICNVNHKPSNTKVDKKVEPKSCDKTHTHHHHHH | 16 | 0.0019 | 120000 | – | – | – | – | – | – | – | – | – | – | – | – | – | – | 12 | –
CODV-Fab 7G3x18F5 antibody-like binding protein (bispecific antibody) light: DVLMTQTPVSLSVSLGGQVSISCRSSQSLVHTNGNTYLSWYLQKPGQSPQLLIYKVSNRLSGISDRFSGSGSGTDFTLKISRVEPDDLGVYYCGQGTHYPFTFGAGTKLELKGQPKAAPDFVMTQSPSSLTVTAGEKVTMSCKSSQSLLNSGNQKNYLTWYLQKPGQPPKLLIYWASTRESGVPDRFTGSGSGTDFTLTISSVQAEDLAVYYCQNDYSYPYTFGGGTKLEIKTKGPSRTVAAPSVFIFPPSDEQLKSGTASVVCLLNNFYPREAKVQWKVDNALQSGNSQESVTEQDSKDSTYSLSSTLTLSKADYEKHKVYACEVTHQGLSSPVTKSFNRGEC heavy: EVQLQQSGPELVKPGASVKMSCKASGYTFTDYYMKWVKQSHGKSLEWIGDIIPSNGATFYNQKFKGKATLTVDRSSSTAYMHLNSLTSEDSAVYYCTRSHLLRASWFAYWGQGTLVTVSASEVQVVETGGSLVQPGKSLKLTCATSGFTFTNAWMHWVRRSPEKQLEWVAQIKDKSNNYATYYAESVKGRFTISRDDSKSSIYLQMNSLKEEDTAIYYCRYVHYRFAYALDAWGRGTSVSVSSRTASTKGPSVFPLAPSSKSTSGGTAALGCLVKDYFPEPVTVSWNSGALTSGVHTFPAVLQSSGLYSLSSVVTVPSSSLGTQTYICNVNHKPSNTKVDKKVEPKSCDKTHTHHHHHH | – | – | – | – | – | – | – | – | – | – | – | – | – | – | – | – | – | 61 | –
4E7-C9 Fab (Fab, V domains shown, also called BDX-4E7-C9) VH: EVQVVETGGSLVQPGKSLKLTCATSGFTFSNAWMHWVRQSPEKQLEWVAQIKDKSNNYATYYAESLKGRFTISRDDPKRSIYLQMNSLREEDTAIYYCRYVHYGIGYAMDAWGQGTSVTVSS VL: DVVMTQTPVSLSVSLGGQVSISCRSSQSLEHNNGNTYLSWYLQKPGQSPQPLIYKVSNRFSGISDRFSGSGSGTDFTLKISRVEPDDLGVYYCGQGTQYPFTFGPGTKLELKR | – | – | – | 17 | 0.0016 | 89000 | 17 | 0.0015 | 89000 | 66.4 | 69 | 8 | 6 | – | – | – | 6.2 | – | no binding (tested: <20% of binding of huCD3e + huCD3d)

Continued, in another order:

Kd [2] [nM] | koff [2] [s⁻¹] | kon [2] [M⁻¹ s⁻¹] | Kd [3] [nM] | koff [3] [s⁻¹] | kon [3] [M⁻¹ s⁻¹] | Kd [4] [nM] | koff [4] [s⁻¹] | kon [4] [M⁻¹ s⁻¹] | % antibody positive transfected cells [5] [%] | % antibody positive transfected cells [6] [%] | RU of Fab binding at 100 nM [7] [RU] | RU of Fab binding at 100 nM [8] [RU] | Kd [9] [nM] | koff [9] [s⁻¹] | kon [9] [M⁻¹ s⁻¹] | EC50 [11] [nM] | Binder | Activity EC50 [ng/ml], cytotoxic assay on THP-1 with human T cells [1] [ng/mL] | binding result [10]
– | – | – | 27 | 0.0029 | 110000 | 27 | 0.0029 | 110000 | 69.5 | 71.5 | 11 | 3 | 8.79 | 0.00285 | 326000 | 15.3 | 4B4-D7 Fab (Fab, V domains shown, also called BDW-4B4-D7) VH: EVQLVETGGRLVQPGRSLKLTCATSGFTFSNAWMHWVRQSPEKQLEWVAQIKARSNNYATYYAESVKGRFTISRDDSKSTIYLQMNSLKEEDTAIYYCRGTYYASKPFDYWGQGVMVTVSS VL: DVVMTQTPVSLSVSLGGQVSISCRSSQSLVHDNGNTYLSWSLQRPGQSPQVLIYKVSNRFSGTSDRFTGSGSGTDFTLKISRVEPDDLGVYYCGQGTQYPFTFGSGTKLEIKR | – | no binding (tested: <20% of binding of huCD3e + huCD3d)
– | – | – | 7.7 | 0.00027 | 35000 | 8 | 0.00027 | 35000 | 67.4 | 68.6 | 7 | 4 | – | – | – | 14 | 20G6-F3 Fab (Fab, V domains shown, also called BDW-20G6-F3) VH: EVQLVETGGSLVQPGKSLKLTCATSGFTFTKAWMHWVRQSPEKQLEWVAQIKDKSNSYATYYAESVKGRFTISRDDSKSTIYLQMNSLKEEDTAIYYCRGVYYALSPFDYWGQGVMVTVSS VL: DVVMTQTPVSLSVSLGGQVSISCRSSQSLVHNNGNTYLSWYLQKPGQSPQSLIYKVSNRFSGFSDRFSGSGSGTDFTLKISRVDPDDLGVYYCGQGTQYPFTFGSGTKLEIKR | – | no binding (tested: <20% of binding of huCD3e + huCD3d)
